Experimental data published in article PMC8294851.

How the values were obtained:
[1] = biological target: Neuronal SNARE complex (VAMP2 on nanolipoprotein particles with flipped t-SNAREs Syntaxin-1 and SNAP-25 on tCells) (not stated | rat) (UniProt P63045)
[2] = biological target: Neuronal SNARE complex (VAMP2 on nanolipoprotein particles with flipped t-SNAREs Syntaxin-1 and SNAP-25 on tCells) (not stated | rat) (UniProt P63045); remark: listed apart in the source
[3] = biological target: Neuronal SNARE complex (VAMP2 on nanolipoprotein particles with flipped t-SNAREs Syntaxin-1 and SNAP-25 on tCells) (not stated | rat) (UniProt P63045); remark: listed apart in the source

Chain of UniProt P63045 (P63045 whole entry, chain 1 of 3): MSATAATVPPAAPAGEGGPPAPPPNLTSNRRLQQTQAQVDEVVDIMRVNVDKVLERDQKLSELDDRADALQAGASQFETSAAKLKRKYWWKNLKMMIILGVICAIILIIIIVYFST
Chain of UniProt P63045 (P32851 186-288, chain 2 of 3, further chain): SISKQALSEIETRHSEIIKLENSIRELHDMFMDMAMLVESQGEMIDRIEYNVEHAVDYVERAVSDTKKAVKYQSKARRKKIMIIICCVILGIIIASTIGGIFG
Chain of UniProt P63045 (P60881 2-206, chain 3 of 3, further chain): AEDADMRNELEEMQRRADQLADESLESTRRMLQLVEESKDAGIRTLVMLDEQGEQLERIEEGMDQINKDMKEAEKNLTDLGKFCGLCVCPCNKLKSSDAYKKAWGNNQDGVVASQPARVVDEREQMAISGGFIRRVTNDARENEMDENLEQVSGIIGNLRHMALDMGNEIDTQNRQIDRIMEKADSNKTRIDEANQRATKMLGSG

Synaptotagmin-1 C2AB R398Q, R399Q (from UniProt P21707 96-421) (domain or fragment)
mean single open-pore conductance, mutant C2AB with VAMP2 NLPs and flipped t-SNARE cells, 100 μM free calcium and exogenous PI(4,5)P2, compared to wild-type C2AB [1]: 3 fold smaller

Synaptotagmin-1 soluble C2AB domains (rat Syt1 residues 96-421) (from UniProt P21707 96-421) (domain or fragment)
mean single fusion pore conductance, 10 μM soluble C2AB with VAMP2 NLPs and flipped t-SNARE cells, 100 μM calcium and exogenous PI(4,5)P2, compared to no Syt1 [2]: 3 fold

Full-length Synaptotagmin-1 (pET28a-SUMO-synaptotagmin 1, residues 57-421), reconstituted into nanolipoprotein particles (from UniProt P21707 57-421) (natural protein)
mean single-pore conductance, fusion of NLPs carrying Syt1 and VAMP2 with flipped t-SNARE cells pre-incubated with diC8PI(4,5)P2, compared to SNARE-alone fusion [3]: 3 fold
